{"source": "paper PMC9703647", "about": "(Nature, 2022)", "target": "the molecule itself", "experiment": "cross-linking", "data": [{"protein": "GSDMA_(1–246) (domain or fragment, human, UniProt Q96QA5 1-246, looked up) MTMFENVTRALARQLNPRGDLTPLDSLIDFKRFHPFCLVLRKRKSTLFWGARYVRTDYTLLDVLEPGSSPSDPTDTGNFGFKNMLDTRVEGDVDVPKTVKVKGTAGLSQNSTLEVQTLSVAPKALETVQERKLAADHPFLKEMQDQGENLYVVMEVVETVQEVTLERAGKAEACFSLPFFAPLGLQGSINHKEAVTIPKGCVLAFRVRQLMVKGKDEWDIPHICNDNMQTFPPGEKSGEEKVILIQ", "values": [{"measurement": "binding result", "value": "binds"}]}]}
